Reference: US11079398B2, “Method for measurement of peptidic degradation products of a proteolytic cascade in blood samples” (ATTOQUANT DIAGNOSTICS GMBH, priority 2012, dated 2021)

System: renin-angiotensin system (RAS)
Assay: RSSE-Fingerprinting: blood incubated at 37° C. with added agents, LC-MS/MS quantification of angiotensin peptides
Format: biochemical, human
Settings: for shift of RSSE-Fingerprint: 5 μg/ml enzyme added prior to incubation
Protocol: Blood samples were collected and anti-coagulated with standardised heparin tubes (BD). As indicated in FIGS. 3A-3C, plasma separation has been done for the respective samples before the incubation to reach steady state equilibrium.
Following plasma separation by centrifugation at 3000 rcf for 10 minutes at 4° C., […] of plasma was applied onto an activated and equilibrated SEP-PAK™ C18 cartridge. Sample matrix components were removed by washing three times with 1 ml water. Bound analytes were then eluted with 1 ml of methanol. Eluates were evaporated to dryness and reconstituted in 10% acetonitril/90% water supplemented with 0.1% formic acid followed by subjection to LC-MS/MS analysis.
A vacuum manifold has been used for sample processing. • 1. Activation: EtOH abs. • 2. Equilibration: 2×1 ml H2O • 3. Loading: 0.2-1 ml stabilised plasma • 4. Washing: 3×1 ml H2O • 5. Elution: 1 ml MeOH Quantification and Signal Integration
MRM chromatograms were integrated using Analyst 1.5.1 software provided by Applied Biosystems. The threshold for the quantification limit was set at a signal-to-noise ratio of 10. Integration signals not reaching this ratio were set to zero. Analyte signals were related to internal standard signals and concentration was calculated from initially spiked amounts of internal standards.

Molecule	shift of RSSE-Fingerprint	steady state equilibrium Ang 1-10 concentration, addition of ACE compared to ACE2 (5 μg/ml enzyme, FIG. 2B1)
APN: recombinant aminopeptidase N, purchased from R&D Systems (protein, UniProt P15144 2-967, looked up) Aminopeptidase N: AKGFYISKSLGILGILLGVAAVCTIIALSVVYSQEKNKNANSSPVASTTPSASATTNPASATTLDQSKAWNRYRLPNTLKPDSYRVTLRPYLTPNDRGLYVFKGSSTVRFTCKEATDVIIIHSKKLNYTLSQGHRVVLRGVGGSQPPDIDKTELVEPTEYLVVHLKGSLVKDSQYEMDSEFEGELADDLAGFYRSEYMEGNVRKVVATTQMQAADARKSFPCFDEPAMKAEFNITLIHPKDLTALSNMLPKGPSTPLPEDPNWNVTEFHTTPKMSTYLLAFIVSEFDYVEKQASNGVLIRIWARPSAIAAGHGDYALNVTGPILNFFAGHYDTPYPLPKSDQIGLPDFNAGAMENWGLVTYRENSLLFDPLSSSSSNKERVVTVIAHELAHQWFGNLVTIEWWNDLWLNEGFASYVEYLGADYAEPTWNLKDLMVLNDVYRVMAVDALASSHPLSTPASEINTPAQISELFDAISYSKGASVLRMLSSFLSEDVFKQGLASYLHTFAYQNTIYLNLWDHLQEAVNNRSIQLPTTVRDIMNRWTLQMGFPVITVDTSTGTLSQEHFLLDPDSNVTRPSEFNYVWIVPITSIRDGRQQQDYWLIDVRAQNDLFSTSGNEWVLLNLNVTGYYRVNYDEENWRKIQTQLQRDHSAIPVINRAQIINDAFNLASAHKVPVTLALNNTLFLIEERQYMPWEAALSSLSYFKLMFDRSEVYGPMKNYLKKQVTPLFIHFRNNTNNWREIPENLMDQYSEVNAISTACSNGVPECEEMVSGLFKQWMENPNNNPIHPNLRSTVYCNAIAQGGEEEWDFAWEQFRNATLVNEADKLRAALACSKELWILNRYLSYTLNPDLIRKQDATSTIISITNNVIGQGLVWDFVQSNWKKLFNDYGGGSFSFSNLIQAVTRRFSTEYELQQLEQFKKDNEETGFGSGTRALEQALEKTKANIKWVKENKEVVLQWFTENSK	shifted as expected	–
ACE: recombinant RAS enzyme Angiotensin Converting Enzyme, purchased from R&D Systems (protein, UniProt P12821 30-1306, looked up) Angiotensin-converting enzyme: LDPGLQPGNFSADEAGAQLFAQSYNSSAEQVLFQSVAASWAHDTNITAENARRQEEAALLSQEFAEAWGQKAKELYEPIWQNFTDPQLRRIIGAVRTLGSANLPLAKRQQYNALLSNMSRIYSTAKVCLPNKTATCWSLDPDLTNILASSRSYAMLLFAWEGWHNAAGIPLKPLYEDFTALSNEAYKQDGFTDTGAYWRSWYNSPTFEDDLEHLYQQLEPLYLNLHAFVRRALHRRYGDRYINLRGPIPAHLLGDMWAQSWENIYDMVVPFPDKPNLDVTSTMLQQGWNATHMFRVAEEFFTSLELSPMPPEFWEGSMLEKPADGREVVCHASAWDFYNRKDFRIKQCTRVTMDQLSTVHHEMGHIQYYLQYKDLPVSLRRGANPGFHEAIGDVLALSVSTPEHLHKIGLLDRVTNDTESDINYLLKMALEKIAFLPFGYLVDQWRWGVFSGRTPPSRYNFDWWYLRTKYQGICPPVTRNETHFDAGAKFHVPNVTPYIRYFVSFVLQFQFHEALCKEAGYEGPLHQCDIYRSTKAGAKLRKVLQAGSSRPWQEVLKDMVGLDALDAQPLLKYFQPVTQWLQEQNQQNGEVLGWPEYQWHPPLPDNYPEGIDLVTDEAEASKFVEEYDRTSQVVWNEYAEANWNYNTNITTETSKILLQKNMQIANHTLKYGTQARKFDVNQLQNTTIKRIIKKVQDLERAALPAQELEEYNKILLDMETTYSVATVCHPNGSCLQLEPDLTNVMATSRKYEDLLWAWEGWRDKAGRAILQFYPKYVELINQAARLNGYVDAGDSWRSMYETPSLEQDLERLFQELQPLYLNLHAYVRRALHRHYGAQHINLEGPIPAHLLGNMWAQTWSNIYDLVVPFPSAPSMDTTEAMLKQGWTPRRMFKEADDFFTSLGLLPVPPEFWNKSMLEKPTDGREVVCHASAWDFYNGKDFRIKQCTTVNLEDLVVAHHEMGHIQYFMQYKDLPVALREGANPGFHEAIGDVLALSVSTPKHLHSLNLLSSEGGSDEHDINFLMKMALDKIAFIPFSYLVDQWRWRVFDGSITKENYNQEWWSLRLKYQGLCPPVPRTQGDFDPGAKFHIPSSVPYIRYFVSFIIQFQFHEALCQAAGHTGPLHKCDIYQSKEAGQRLATAMKLGFSRPWPEAMQLITGQPNMSASAMLSYFKPLLDWLRTENELHGEKLGWPQYNWTPNSARSEGPLPDSGRVSFLGLDLDAQQARVGQWLLLFLGIALLVATLGLSQRLFSIRHRSLHRHSHGPQFGSEVELRHS	shifted as expected	lower
NEP: recombinant neutral endopeptidase (neprilysin), purchased from R&D Systems (protein, UniProt P08473 2-750, looked up) Neprilysin: GKSESQMDITDINTPKPKKKQRWTPLEISLSVLVLLLTIIAVTMIALYATYDDGICKSSDCIKSAARLIQNMDATTEPCTDFFKYACGGWLKRNVIPETSSRYGNFDILRDELEVVLKDVLQEPKTEDIVAVQKAKALYRSCINESAIDSRGGEPLLKLLPDIYGWPVATENWEQKYGASWTAEKAIAQLNSKYGKKVLINLFVGTDDKNSVNHVIHIDQPRLGLPSRDYYECTGIYKEACTAYVDFMISVARLIRQEERLPIDENQLALEMNKVMELEKEIANATAKPEDRNDPMLLYNKMTLAQIQNNFSLEINGKPFSWLNFTNEIMSTVNISITNEEDVVVYAPEYLTKLKPILTKYSARDLQNLMSWRFIMDLVSSLSRTYKESRNAFRKALYGTTSETATWRRCANYVNGNMENAVGRLYVEAAFAGESKHVVEDLIAQIREVFIQTLDDLTWMDAETKKRAEEKALAIKERIGYPDDIVSNDNKLNNEYLELNYKEDEYFENIIQNLKFSQSKQLKKLREKVDKDEWISGAAVVNAFYSSGRNQIVFPAGILQPPFFSAQQSNSLNYGGIGMVIGHEITHGFDDNGRNFNKDGDLVDWWTQQSASNFKEQSQCMVYQYGNFSWDLAGGQHLNGINTLGENIADNGGLGQAYRAYQNYIKKNGEEKLLPGLDLNHKQLFFLNFAQVWCGTYRPEYAVNSIKTDVHSPGNFRIIGTLQNSAEFSEAFHCRKNSYMNPEKKCRVW	shifted as expected	–
